Like-named read-outs stand apart in the source and are kept apart here.

The target of experiment [1] is T1, high-affinity IL2R expressed on the surface of CTLL-2 cells.
T1 sequence (P01590 whole entry, species assumed, looked up): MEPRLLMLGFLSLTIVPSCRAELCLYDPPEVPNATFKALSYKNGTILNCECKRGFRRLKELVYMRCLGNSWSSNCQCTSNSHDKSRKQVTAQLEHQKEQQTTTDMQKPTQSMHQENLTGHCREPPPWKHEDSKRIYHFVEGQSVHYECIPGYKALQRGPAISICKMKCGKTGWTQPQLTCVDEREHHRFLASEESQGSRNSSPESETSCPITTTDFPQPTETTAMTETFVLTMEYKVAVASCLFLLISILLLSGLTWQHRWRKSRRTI
T1 sequence (P16297 whole entry, species assumed, looked up): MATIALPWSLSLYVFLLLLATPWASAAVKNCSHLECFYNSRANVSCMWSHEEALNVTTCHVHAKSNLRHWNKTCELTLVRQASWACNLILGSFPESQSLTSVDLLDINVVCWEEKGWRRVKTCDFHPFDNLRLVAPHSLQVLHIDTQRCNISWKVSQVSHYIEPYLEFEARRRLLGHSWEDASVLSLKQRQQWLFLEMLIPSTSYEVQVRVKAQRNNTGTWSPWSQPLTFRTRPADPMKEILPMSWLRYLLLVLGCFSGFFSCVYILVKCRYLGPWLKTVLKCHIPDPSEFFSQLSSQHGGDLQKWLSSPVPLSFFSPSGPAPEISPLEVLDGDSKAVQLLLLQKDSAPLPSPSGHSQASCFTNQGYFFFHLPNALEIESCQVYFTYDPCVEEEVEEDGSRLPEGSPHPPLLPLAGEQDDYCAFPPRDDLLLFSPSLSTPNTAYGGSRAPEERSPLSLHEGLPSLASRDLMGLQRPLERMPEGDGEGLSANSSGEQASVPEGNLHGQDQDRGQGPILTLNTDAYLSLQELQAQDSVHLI
T1 sequence (P34902 whole entry, species assumed, looked up): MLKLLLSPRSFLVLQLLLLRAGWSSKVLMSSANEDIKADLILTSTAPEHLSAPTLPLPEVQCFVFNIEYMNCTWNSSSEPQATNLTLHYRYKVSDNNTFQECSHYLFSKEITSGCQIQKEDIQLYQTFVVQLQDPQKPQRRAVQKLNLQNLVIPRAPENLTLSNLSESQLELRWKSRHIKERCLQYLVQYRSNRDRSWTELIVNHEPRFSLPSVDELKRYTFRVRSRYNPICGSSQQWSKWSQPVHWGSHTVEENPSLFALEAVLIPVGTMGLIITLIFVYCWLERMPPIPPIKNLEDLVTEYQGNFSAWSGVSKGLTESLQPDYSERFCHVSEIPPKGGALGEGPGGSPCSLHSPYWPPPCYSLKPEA
In words: cell-based or functional assay.

Experiment [2] has as its target T1, high-affinity IL2R expressed on the …. The experiment in a line: cell-based or functional assay. This is another data set of the same source.
Experiment [3] concerns the target T2, hIL2Rβ/γ on CD25-knockout NK-92 cells (human, UniProt P14784 27-551; P31785 23-369).
T2 sequence (looked up) 1: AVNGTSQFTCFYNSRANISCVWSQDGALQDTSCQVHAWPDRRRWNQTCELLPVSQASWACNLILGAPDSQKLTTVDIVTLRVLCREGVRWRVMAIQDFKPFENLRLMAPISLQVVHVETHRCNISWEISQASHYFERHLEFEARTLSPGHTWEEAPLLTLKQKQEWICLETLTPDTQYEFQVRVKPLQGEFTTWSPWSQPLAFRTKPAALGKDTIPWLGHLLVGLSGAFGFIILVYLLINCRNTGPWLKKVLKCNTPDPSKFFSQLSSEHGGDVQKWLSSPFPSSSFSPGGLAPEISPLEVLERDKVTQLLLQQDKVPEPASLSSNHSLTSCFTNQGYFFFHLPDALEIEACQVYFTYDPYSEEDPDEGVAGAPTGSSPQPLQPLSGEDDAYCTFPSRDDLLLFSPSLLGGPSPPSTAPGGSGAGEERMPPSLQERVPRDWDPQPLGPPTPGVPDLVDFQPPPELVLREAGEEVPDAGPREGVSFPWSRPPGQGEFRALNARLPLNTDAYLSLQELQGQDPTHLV
T2 sequence (looked up) 2: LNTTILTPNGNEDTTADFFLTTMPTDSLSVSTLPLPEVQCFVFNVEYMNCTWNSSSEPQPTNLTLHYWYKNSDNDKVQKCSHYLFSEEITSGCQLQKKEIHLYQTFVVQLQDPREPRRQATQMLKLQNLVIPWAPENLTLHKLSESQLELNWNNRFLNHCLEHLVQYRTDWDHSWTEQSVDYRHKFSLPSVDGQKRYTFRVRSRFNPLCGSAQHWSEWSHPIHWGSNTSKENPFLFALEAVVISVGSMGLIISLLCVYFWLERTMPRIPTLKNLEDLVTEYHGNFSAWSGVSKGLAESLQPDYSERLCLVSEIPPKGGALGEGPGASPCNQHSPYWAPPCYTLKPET
The experiment in a line: cell-based or functional assay.

Experiment [4] addresses T3, hIL2Rα (hCD25) (human, UniProt P01589 22-213, limits assumed).
T3 construct: bought recombinant protein; also called hCD25 (Acro); biotin-CD25 (Acro)
T3 sequence (looked up): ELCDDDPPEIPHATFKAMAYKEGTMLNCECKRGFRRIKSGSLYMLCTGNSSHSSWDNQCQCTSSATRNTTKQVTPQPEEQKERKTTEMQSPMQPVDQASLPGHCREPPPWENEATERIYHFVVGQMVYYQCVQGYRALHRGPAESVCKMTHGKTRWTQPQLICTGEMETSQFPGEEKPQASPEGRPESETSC
In words: BLI (ForteBio): biotin-CD25 on an SA sensor, buffer step, then sample. (In general: Biolayer interferometry detects binding as a change in optical thickness at a sensor tip.)

In experiment [5] the target is T4, hIL2Rα/β complex (human, UniProt P01589 22-213; P14784 27-239).
T4 construct: assembled in the BLI assay from bought subunits; also called hIL2Rα/O complex
T4 sequence (looked up) 1: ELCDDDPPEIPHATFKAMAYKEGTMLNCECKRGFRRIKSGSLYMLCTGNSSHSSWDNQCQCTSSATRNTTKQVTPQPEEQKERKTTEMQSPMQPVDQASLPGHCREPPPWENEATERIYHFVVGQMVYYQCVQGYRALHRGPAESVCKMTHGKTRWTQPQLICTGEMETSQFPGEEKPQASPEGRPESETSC
T4 sequence (looked up) 2: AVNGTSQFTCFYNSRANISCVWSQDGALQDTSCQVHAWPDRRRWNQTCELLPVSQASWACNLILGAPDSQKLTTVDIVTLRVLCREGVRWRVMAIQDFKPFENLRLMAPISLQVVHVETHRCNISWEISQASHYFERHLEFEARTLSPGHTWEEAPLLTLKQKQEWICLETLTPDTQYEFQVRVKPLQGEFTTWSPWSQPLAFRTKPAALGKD
The experiment in a line: BLI (ForteBio): biotin-CD25 on an SA sensor, CD122 step, then sample together with CD122.
Description: (§1) The specific method was described as follows: biotin-CD25 (Acro) was diluted in 1×PBS to 5 μg/mL and added to a 96-well black-wall plate at 200 μL per well; hIL2Rβ (Acro) was diluted to 5 μg/mL in 1×PBS and also added to the 96-well black-wall plate at 200 μL per well. […] The 96-well black-wall plate containing the testing samples and a SA sensor was uploaded onto the analyzer, and a program was inputted. The SA sensor was firstly immersed into the well with biotin-CD25 (Acro) and then with hIL2Rβ (Acro) till saturation. After that, the sensor was immersed in the testing sample well and the binding signal was recorded in real-time. At the end of each association-dissociation cycle, the sensor was regenerated by immersing in 500 mM phosphate buffer and then started with the next cycle of detection.

Experiment [6] deals with T5, hIL2Rα/β/γ complex (human, UniProt P01589 22-213; P14784 27-239; P31785 23-254).
T5 construct: assembled in the BLI assay from bought subunits; also called hIL2Rα/o/γ complex
T5 sequence (looked up) 1: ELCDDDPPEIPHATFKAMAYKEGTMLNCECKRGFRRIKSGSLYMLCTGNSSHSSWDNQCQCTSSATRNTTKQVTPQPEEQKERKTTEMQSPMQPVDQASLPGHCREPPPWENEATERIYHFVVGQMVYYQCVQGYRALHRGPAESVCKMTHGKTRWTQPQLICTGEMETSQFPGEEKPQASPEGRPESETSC
T5 sequence (looked up) 2: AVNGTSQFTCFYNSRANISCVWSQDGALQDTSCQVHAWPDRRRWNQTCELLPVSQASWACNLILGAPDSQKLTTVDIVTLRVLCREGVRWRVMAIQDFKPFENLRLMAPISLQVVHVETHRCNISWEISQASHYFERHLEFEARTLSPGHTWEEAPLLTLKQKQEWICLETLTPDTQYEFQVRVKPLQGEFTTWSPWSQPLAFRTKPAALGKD
T5 sequence (looked up) 3: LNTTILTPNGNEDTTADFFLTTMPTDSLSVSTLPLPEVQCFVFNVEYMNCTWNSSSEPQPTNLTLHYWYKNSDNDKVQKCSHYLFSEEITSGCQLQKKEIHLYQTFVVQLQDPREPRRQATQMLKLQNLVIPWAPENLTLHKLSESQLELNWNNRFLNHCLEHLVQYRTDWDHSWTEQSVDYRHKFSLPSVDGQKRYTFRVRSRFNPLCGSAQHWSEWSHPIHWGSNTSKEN
The experiment in a line: BLI (ForteBio): biotin-CD25 on an SA sensor, CD122 step, then sample together with CD132.
Description: as §1

Experiment [7] concerns the target FcγRI (UniProt P12314 16-288, limits assumed). In words: BLI (ForteBio), series of concentrations, not labelled on the sheet.
Experiment [8] concerns the target T6, FcγRIIa (UniProt P12318 36-218, limits assumed).
T6 sequence (looked up): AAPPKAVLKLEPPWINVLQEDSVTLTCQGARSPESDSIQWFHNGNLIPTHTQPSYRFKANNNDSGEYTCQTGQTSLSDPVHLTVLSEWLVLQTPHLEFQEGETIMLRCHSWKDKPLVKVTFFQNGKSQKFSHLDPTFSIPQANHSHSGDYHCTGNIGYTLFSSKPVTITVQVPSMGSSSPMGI
The description is as above.

Experiment [9] concerns the target FcγRIIIa-158F (UniProt P08637 17-208, limits assumed). Described as above.

Chain of FcγRIIIa-158F (P08637 17-208 limits assumed): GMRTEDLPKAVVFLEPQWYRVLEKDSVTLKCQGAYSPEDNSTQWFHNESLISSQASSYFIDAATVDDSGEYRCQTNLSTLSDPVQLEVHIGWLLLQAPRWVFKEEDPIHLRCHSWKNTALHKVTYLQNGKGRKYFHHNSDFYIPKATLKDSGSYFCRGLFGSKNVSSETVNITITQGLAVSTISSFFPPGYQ
Chain of FcγRI (P12314 16-288 limits assumed): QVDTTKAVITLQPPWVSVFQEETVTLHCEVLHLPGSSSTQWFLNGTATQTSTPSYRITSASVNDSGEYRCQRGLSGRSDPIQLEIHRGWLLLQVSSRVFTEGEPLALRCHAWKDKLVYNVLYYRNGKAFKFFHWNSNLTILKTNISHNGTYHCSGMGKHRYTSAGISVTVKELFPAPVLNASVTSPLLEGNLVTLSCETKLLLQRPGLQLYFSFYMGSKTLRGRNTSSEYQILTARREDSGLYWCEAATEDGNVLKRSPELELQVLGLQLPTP

B1: K2G11-Cy05 (other)
chain: SSSTKKTQLQLEHLLLDLQMILNGINNYKNPKLTRMLTFKFYMPKKATELKHLQCLEEELGPLEEVLNLAQSKNFHLRPRDLISNIRVIVLELKGSETCFMCEYADETATIVEFLNRWITFLQSIISTLTGGGGSGGGGSGGGGSGGGGSQVQLVQSGAEVKKPGATVKISCKVSGDTITAYYMHWVRQAPGQGLEWIGRIDPDDDSTKYAENFKGRVTITADTSTDTAYMELSSLRSEDTAVYYCTTITFLYSRELRWFAYWGQGTLVTVSSASTKGPSVFPLAPSSKSTSGGTAALGCLVKDYFPEPVTVSWNSGALTSGVHTFPAVLQSSGLYSLSSVVTVPSSSLGTQTYICNVDHKPSNTKVDKRVEPKSCDKTHTCPPCPAPEFEGGPSVFLFPPKPKDTLMISRTPEVTCVVVDVSHEDPEVQFNWYVDGVEVHNAKTKPREEQYNSTYRVVSVLTVLHQDWLNGKEYKCKVSNKALPASIEKTISKAKGQPREPQVYTLPPSRDELTKNQVSLTCLVKGFYPSDIAVEWESNGQPENNYKTTPPVLDSDGSFFLYSKLTVDKSRWQEGNVFSCSVMHEALHNHYTQKSLSLSPGK
VL: DIVLTQSPATLSLSPGERATLSCQASQYISNYLSWYQQKPGQAPRLLIYSATSLASGIPARFSGSRCGTDFTLTISSLEPEDFAVYYCLQHYSTPYTFGQGTKLEIK
modifications: Engineered disulfide between chain 1 Cys99 (IL-2 T102C) and chain 2 Cys67 (S67C), as in Table 32 (LC: C67-HC: C99).
notes: hIL2-DM (Δ3, C125L) fused to the heavy chain of K2G11, disulfide IL:102-L:67
In the case of B1, the “Activity in Promoting CTLL-2 Cell Proliferation (EC50, nM)” value in experiment [1] was 11.2 nM; in experiment [2] it was 9.17 nM. Moreover, in experiment [3], the “Activity in Promoting NK-92 (CD25-KO) Cell Proliferation (EC50, nM)” value worked out at 0.065 nM. The binding result in experiment [4], in experiment [5] and in [6] was “no binding” each time.

B2: K2G11-pITM (antibody)
VH: QVQLVQSGAEVKKPGATVKISCKVSGDTITAYYMHWVRQAPGQGLEWIGRIDPDDDSTKYAENFKGRVTITADTSTDTAYMELSSLRSEDTAVYYCTTITFLYSRELRWFAYWGQGTLVTVSSASTKGPSVFPLAPSSKSTSGGTAALGCLVKDYFPEPVTVSWNSGALTSGVHTFPAVLQSSGLYSLSSVVTVPSSSLGTQTYICNVDHKPSNTKVDKRVEPKSCDKTHTCPPCPAPEFEGGPSVFLFPPKPKDTLMISRTPEVTCVVVDVSHEDPEVQFNWYVDGVEVHNAKTKPREEQYNSTYRVVSVLTVLHQDWLNGKEYKCKVSNKALPASIEKTISKAKGQPREPQVYTLPPSRDELTKNQVSLTCLVKGFYPSDIAVEWESNGQPENNYKTTPPVLDSDGSFFLYSKLTVDKSRWQEGNVFSCSVMHEALHNHYTQKSLSLSPGK
VL: DIVLTQSPATLSLSPGERATLSCQASQYISNYLSWYQQKPGQAPRLLIYSATSLASGIPARFSGSRSGTDFTLTISSLEPEDFAVYYCLQHYSTPYTFGQGTKLEIK
notes: K2G11 with pI (N203D/K274Q/Q419E) and TM (L234F/L235E/P331S) mutations, EU numbering, in the hIgG1 heavy chain constant region; also called humanized anti-IL-2 antibody K2G11-pITM; copies: 2 + 2
In the case of B2, the binding result in experiment [7], in experiment [8] and in experiment [9] was “no binding (tested: not printed on the sheet)” each time.

The values are drawn from patent US20250346644A1 (LATTICON SUZHOU BIOPHARMACEUTICALS, published 2025).
